Laboratory results from patent US20230374088A1 (GENERAL HOSPITAL, published 2023).

What was measured:
c-Myc-Gli2 (595-1568aa) = molecular target: T1, c-Myc-Gli2 (595-1568aa) (human, UniProt P10070 595-1568); assay: pull-down on anti-FLAG beads, anti-c-myc blot, Expi293F cells
T1 construct: the end of the construct is meant as the C-terminus of the protein; also called C-terminal half of Gli2; not shown: c-myc tag from pCMV-BICEP-4 (MCS2), N-terminal by the name
T1 sequence (looked up): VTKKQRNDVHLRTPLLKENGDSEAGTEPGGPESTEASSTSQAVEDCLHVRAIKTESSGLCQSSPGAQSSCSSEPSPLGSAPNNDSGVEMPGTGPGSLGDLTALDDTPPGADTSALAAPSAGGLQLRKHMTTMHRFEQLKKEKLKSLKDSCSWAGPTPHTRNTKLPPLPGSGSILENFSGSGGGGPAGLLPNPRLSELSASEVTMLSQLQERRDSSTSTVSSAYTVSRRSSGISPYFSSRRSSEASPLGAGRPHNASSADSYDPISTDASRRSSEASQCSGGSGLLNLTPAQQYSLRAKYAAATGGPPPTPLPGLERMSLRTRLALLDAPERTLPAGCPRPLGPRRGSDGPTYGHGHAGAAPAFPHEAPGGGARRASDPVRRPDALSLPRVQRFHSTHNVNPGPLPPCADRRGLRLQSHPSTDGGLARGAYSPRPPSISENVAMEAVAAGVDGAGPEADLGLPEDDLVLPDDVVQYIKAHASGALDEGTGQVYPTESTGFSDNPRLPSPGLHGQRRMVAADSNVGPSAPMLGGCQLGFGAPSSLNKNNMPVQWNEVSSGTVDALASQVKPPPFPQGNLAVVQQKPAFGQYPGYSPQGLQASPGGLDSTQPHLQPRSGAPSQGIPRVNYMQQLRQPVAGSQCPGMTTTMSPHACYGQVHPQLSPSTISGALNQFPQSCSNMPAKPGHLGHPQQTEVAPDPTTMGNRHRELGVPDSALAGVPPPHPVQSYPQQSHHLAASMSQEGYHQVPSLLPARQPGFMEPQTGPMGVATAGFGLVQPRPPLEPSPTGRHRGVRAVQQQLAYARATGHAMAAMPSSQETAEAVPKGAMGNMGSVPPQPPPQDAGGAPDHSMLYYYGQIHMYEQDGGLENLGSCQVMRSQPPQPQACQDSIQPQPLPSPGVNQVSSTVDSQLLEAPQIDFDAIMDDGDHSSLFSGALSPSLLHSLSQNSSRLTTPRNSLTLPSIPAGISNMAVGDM
Text: (§1) Immunoprecipitation (IP) using anti-FLAG magnetic beads. Input (cell lysate), FT (flow through), wash and beads samples were immunoblotted (IB) with anti c-Myc antibody to detect Gli2. […] The blots are representative images of a minimum of three repeats. Gli2-ZF mutants are as follows: ZF2-mut (H493A, R496A), ZF3-mut (H503A, R516A, K521A), ZF4-mut (R550A, K552A, R556A). Kif7-CC mutants are as follows: S1-mut (E500A, E501A, E502A, D505A), S2-mut (E511A, E515A), S3-mut1 (E526A, E529A) and S3-mut2 (E530A, R535A).
(§2) To narrow down the residues that participate in binding, we analyzed the model of the Kif7-SCC:Gli2-ZF complex using PDBsum server (De Beer et al., Nucleic acids research, 42, D292-D296, 2014). We performed alanine scanning mutagenesis of the charged residues on Gli2-ZF that came up as part of the binding interface in the PDBsum analysis and analyzed their binding with pull-down assay (FIG. 3D). […] We systematically mutated the residues to alanine and performed the pull-down assay with Gli2-ZF.

Kif7-DM (1-543aa) = molecular target: T2, Kif7-DM (1-543aa) (human, UniProt Q2M1P5 1-543); assay: cryo-EM of microtubule-bound Kif7-DM with AMP-PNP, 3.9 Å
T2 construct: As used for cryo-EM, without GFP; Expressed with a TEV-cleavable N-terminal 6xHis-SUMOstar tag; also called Kif7 dimer; dimeric Kif7
T2 sequence: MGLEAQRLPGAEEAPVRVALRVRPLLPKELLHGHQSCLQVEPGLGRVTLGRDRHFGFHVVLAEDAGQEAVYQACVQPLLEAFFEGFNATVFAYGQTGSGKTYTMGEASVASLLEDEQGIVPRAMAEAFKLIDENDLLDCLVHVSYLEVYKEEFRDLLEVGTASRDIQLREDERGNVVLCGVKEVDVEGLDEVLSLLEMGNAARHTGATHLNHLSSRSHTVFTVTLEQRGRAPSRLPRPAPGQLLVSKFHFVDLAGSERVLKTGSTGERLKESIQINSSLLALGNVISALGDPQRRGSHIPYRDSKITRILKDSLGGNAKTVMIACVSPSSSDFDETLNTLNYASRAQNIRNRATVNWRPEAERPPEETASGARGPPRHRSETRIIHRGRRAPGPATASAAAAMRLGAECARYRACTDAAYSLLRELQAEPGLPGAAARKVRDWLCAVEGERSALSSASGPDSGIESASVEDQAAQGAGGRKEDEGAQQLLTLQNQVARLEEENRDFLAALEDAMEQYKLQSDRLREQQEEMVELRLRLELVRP
Protocol: For grid preparation, all Kif7-GIi2 preparations were diluted using BRB80 (80 mM 1,4-piperazinediethanesulfonic acid [PIPES], pH 6.8, 1 mM MgCl₂, 1 mM ethylene glycol tetraacetic acid [EGTA]). Porcine brain microtubules were prepared from frozen aliquots of 5 mg/ml tubulin (Cytoskeleton, Denver, CO) in polymerization buffer (BRB80; 80 mM PIPES, pH 6.8, 1 mM EGTA, 2 mM MgCl₂, 3 mM GMP-CPP, 10% dimethyl sulfoxide (DMSO)) at 37° C. for 2-3 hours. The polymerized microtubules were then incubated at room temperature for several hours or overnight before use. The following day or several hours later the microtubules were spun down on a bench top centrifuge 14.00 RPM 10 min to pellet. The pellet was resuspended in polymerization buffer without DMSO. The Kif7 dimer and monomer preparations were made by mixing the Kif7 with the GIi2 or GIi2-SNAP for 1 hour prior to incubation with the microtubules. Kif7-dimer (0.36 mg/ml) plus GIi2 (0.2 mg/ml) in BRB plus 2 mM ADP, 2 mM MgcI2, Kif7-monomer (0.45 mg/mL) or Kif7 dimer plus GIi2_SNAP (0.30 mg/mL) plus BRB80 with 1 mM AMPPNP and 1 mM MgCl₂. All microtubule samples were prepared on 1.2/1.3 400-mesh grids (Electron Microscopy Services) Grids were glow-discharged before sample application. The cryo-samples were prepared using a manual plunger, which was placed in a homemade humidity chamber that varied between 80 and 90% relative humidity. […]

Kif27-DM-GFP (1-580aa) = molecular target: T3, Kif27-DM-GFP (1-580aa) (human, UniProt Q86VH2 1-580); assay: TIRF microscopy on microtubules; 100 nM Gli2-ZF-SNAP-Alexa647 with 100 nM kinesin
T3 construct: range 1-580; Called dimeric; not shown: GFP tag, C-terminal by the name
T3 sequence (looked up): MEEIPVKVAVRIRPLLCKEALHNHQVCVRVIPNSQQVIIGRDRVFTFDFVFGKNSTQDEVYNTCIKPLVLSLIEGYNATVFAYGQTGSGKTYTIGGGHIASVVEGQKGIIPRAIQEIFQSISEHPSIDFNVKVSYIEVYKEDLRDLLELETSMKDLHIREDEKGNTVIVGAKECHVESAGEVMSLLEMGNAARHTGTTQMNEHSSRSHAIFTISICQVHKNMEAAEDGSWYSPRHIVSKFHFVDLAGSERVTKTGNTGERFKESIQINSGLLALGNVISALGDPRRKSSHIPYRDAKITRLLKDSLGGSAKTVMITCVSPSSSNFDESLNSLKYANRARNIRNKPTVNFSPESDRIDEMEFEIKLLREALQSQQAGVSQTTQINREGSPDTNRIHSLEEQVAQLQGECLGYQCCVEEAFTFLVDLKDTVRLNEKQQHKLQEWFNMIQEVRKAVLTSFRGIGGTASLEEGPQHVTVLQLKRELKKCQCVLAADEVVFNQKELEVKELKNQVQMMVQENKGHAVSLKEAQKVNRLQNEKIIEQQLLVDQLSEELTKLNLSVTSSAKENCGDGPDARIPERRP

FLAG-Kif7 (544-1343aa) = molecular target: T4, FLAG-Kif7 (544-1343aa) (human, UniProt Q2M1P5 544-1343); assay: pull-down on anti-FLAG beads, anti-c-myc blot, Expi293F cells
T4 construct: Expressed in Expi293F cells for the pull-down; also called C-terminal half of Kif7; not shown: FLAG tag from pCMV-BICEP-4 (MCS1), N-terminal by the name
T4 sequence: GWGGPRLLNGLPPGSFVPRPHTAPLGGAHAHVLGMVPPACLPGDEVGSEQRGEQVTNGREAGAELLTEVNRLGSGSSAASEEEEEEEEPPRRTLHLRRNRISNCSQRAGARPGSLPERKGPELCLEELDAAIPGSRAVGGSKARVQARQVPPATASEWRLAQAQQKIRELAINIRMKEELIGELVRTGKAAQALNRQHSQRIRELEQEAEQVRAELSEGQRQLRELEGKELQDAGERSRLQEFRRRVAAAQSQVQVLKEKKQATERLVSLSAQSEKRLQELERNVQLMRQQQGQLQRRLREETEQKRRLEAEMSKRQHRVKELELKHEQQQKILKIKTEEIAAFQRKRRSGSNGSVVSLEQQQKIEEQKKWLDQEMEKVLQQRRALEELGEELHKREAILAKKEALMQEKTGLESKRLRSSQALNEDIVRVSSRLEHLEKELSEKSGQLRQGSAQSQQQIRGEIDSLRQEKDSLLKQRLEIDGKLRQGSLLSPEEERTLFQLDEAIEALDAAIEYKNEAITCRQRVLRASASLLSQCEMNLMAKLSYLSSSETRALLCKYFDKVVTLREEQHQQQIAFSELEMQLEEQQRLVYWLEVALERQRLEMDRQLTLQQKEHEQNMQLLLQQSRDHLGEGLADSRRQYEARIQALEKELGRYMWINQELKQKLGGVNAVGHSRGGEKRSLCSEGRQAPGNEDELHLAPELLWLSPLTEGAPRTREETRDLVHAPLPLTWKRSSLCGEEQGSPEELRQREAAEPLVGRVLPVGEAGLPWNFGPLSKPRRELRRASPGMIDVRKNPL
Text: as §1, §2

B1: FLAG-Kif7 (1-543aa) (other)
chain: T2 sequence
notes: Expressed in Expi293F cells for the pull-down; also called N-terminal half of Kif7; Kif7-DM; not shown: FLAG tag from pCMV-BICEP-4 (MCS1), N-terminal by the name
B1: no binding (c-Myc-Gli2 (595-1568aa)).

B2: Gli2-ZF-SNAP (other, human, UniProt P10070 418-604, looked up)
chain: KEDLDRDDCKQEAEVVIYETNCHWEDCTKEYDTQEQLVHHINNEHIHGEKKEFVCRWQACTREQKPFKAQYMLVVHMRRHTGEKPHKCTFEGCSKAYSRLENLKTHLRSHTGEKPYVCEHEGCNKAFSNASDRAKHQNRTHSNEKPYICKIPGCTKRYTDPSSLRKHVKTVHGPDAHVTKKQRNDVH
modifications: Alexa 647 dye on the SNAP tag in the TIRF assays
notes: Labeled with Alexa 647 for TIRF microscopy; used unlabeled (as far as told) for cryo-EM; also called Gli2-ZF-SNAP-Alexa 647; Gli2-ZF-Alexa 647; not shown: C-terminal SNAP tag
B2: binds (Kif7-DM (1-543aa)); no binding (Kif27-DM-GFP (1-580aa)).

B3: c-Myc-Gli2 (1-594aa) (other, human, UniProt P10070 1-594, looked up)
chain: METSASATASEKQEAKSGILEAAGFPDPGKKASPLVVAAAAAAAVAAQGVPQHLLPPFHAPLPIDMRHQEGRYHYEPHSVHGVHGPPALSGSPVISDISLIRLSPHPAGPGESPFNAPHPYVNPHMEHYLRSVHSSPTLSMISAARGLSPADVAQEHLKERGLFGLPAPGTTPSDYYHQMTLVAGHPAPYGDLLMQSGGAASAPHLHDYLNPVDVSRFSSPRVTPRLSRKRALSISPLSDASLDLQRMIRTSPNSLVAYINNSRSSSAASGSYGHLSAGALSPAFTFPHPINPVAYQQILSQQRGLGSAFGHTPPLIQPSPTFLAQQPMALTSINATPTQLSSSSNCLSDTNQNKQSSESAVSSTVNPVAIHKRSKVKTEPEGLRPASPLALTQGQVSGHGSCGCALPLSQEQLADLKEDLDRDDCKQEAEVVIYETNCHWEDCTKEYDTQEQLVHHINNEHIHGEKKEFVCRWQACTREQKPFKAQYMLVVHMRRHTGEKPHKCTFEGCSKAYSRLENLKTHLRSHTGEKPYVCEHEGCNKAFSNASDRAKHQNRTHSNEKPYICKIPGCTKRYTDPSSLRKHVKTVHGPDAH
notes: Expressed in Expi293F cells for the pull-down; also called N-terminal half of Gli2; not shown: c-myc tag from pCMV-BICEP-4 (MCS2), N-terminal by the name
B3: no binding (FLAG-Kif7 (544-1343aa)).
